Assay results: article PMC7283272, “Identifying the role of PrimPol in TDF-induced toxicity and implications of its loss of function mutation in an HIV+ patient”

Molecular target: T1, PrimPol WT (UniProt Q96LW4 1-560)
T1 sequence: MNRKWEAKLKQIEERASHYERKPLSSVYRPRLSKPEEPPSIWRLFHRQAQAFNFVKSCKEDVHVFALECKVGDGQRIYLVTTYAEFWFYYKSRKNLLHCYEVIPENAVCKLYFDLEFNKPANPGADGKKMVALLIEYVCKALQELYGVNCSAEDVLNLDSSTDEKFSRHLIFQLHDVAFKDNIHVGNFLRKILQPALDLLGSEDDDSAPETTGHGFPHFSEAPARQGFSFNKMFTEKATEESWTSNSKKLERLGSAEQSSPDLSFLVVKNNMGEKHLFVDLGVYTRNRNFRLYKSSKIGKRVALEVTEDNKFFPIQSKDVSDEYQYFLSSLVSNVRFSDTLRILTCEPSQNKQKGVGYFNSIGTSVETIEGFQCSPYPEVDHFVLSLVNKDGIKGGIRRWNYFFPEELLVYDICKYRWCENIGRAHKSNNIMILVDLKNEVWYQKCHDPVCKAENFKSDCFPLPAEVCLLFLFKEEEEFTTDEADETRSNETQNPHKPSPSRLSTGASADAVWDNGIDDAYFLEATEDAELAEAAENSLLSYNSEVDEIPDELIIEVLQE
Assay: thermal shift (DSF, stabilization by DNA); 10 uM Mn2+; EMSA: Mn2+ present, buffer not given in the material. DSF: 5 uM protein, 5 uM dsDNA, 50 mM Tris pH 7.5, 300 mM NaCl, 0.5 uM TCEP, 5% glycerol, 10 uM MgCl2 or MnCl2, 4-95 C ramp
Details: protein: recombinant; tags: N-terminal His-TEV (tag cleaved); 20 bp, template 5' overhang 25 nt

B1: D20A/D45 primer/template (dsDNA)
DNA 1: GCCTCGCAGCCGTCCAACCA
DNA 2: GGACGGCATTGGATCGAGGTTGAGTTGGTTGGACGGCTGCGAGGC
- binding result: binds
